Here are results for three molecules from paper PMC4122979 (Bioscience Reports, 2014).

The experiment has as its target Human CaM (calmodulin) (human, UniProt P0DP23 1-149). Kind of experiment: cell-based or functional assay.
Take TRKKTFKEVANAVKISASLM [Unmodified CBD peptide, T495 (heNOS CaM-binding domain, residues 491-510)]: the “inhibition of eNOS L-citrulline formation (100 nM eNOS, 0.5 uM CaM) by 10 uM peptide” value (“inhibition” for short) was found to be 87%. As to TRKKDFKEVANAVKISASLM [Phosphomimetic CBD peptide, D495 (heNOS residues 491-510)], the “inhibition” value was found to be 20%. Turning to TRKKAFKEVANAVKISASLM [Phospho-null CBD peptide, A495 (heNOS residues 491-510)], the “inhibition” value stood at 70%.
